According to US11230581B2, “Peptides and combination of peptides for use in immunotherapy against ovarian cancer and other cancers” (Immatics Biotechnologies GmbH, priority 2015, dated 2022):

What follows are substances tested against HLA-A*02:01 (Homo sapiens, UniProt P04439, D140Y/D185E/D98H/E176V/E277Q/G131W/G231S/I119V/I121R/I166T/I218V/L300P/L318F/N151K/N90K/P208A/P217A/Q86G/Q94H/R138H/R169H/T345S) (assay: MHC binding assay (UV-ligand exchange, β2m ELISA, peptide exchange yield)). Settings: binding of HLA-class I restricted peptides to HLA-A*02:01, UV-ligand exchange.
Source text: Candidate peptides for T cell based therapies according to the present invention were further tested for their MHC binding capacity (affinity). The individual peptide-MHC complexes were produced by UV-ligand exchange, where a UV-sensitive peptide is cleaved upon UV-irradiation, and exchanged with the peptide of interest as analyzed. Only peptide candidates that can effectively bind and stabilize the peptide-receptive MHC molecules prevent dissociation of the MHC complexes. To determine the yield of the exchange reaction, an ELISA was performed based on the detection of the light chain (β2m) of stabilized MHC complexes. The assay was performed as generally described in Rodenko et al. (Rodenko et al., 2006).
96 well MAXISorp plates (NUNC) were coated over night with 2 ug/ml streptavidin in PBS at room temperature, washed 4× and blocked for 1h at 37° C. in 2% BSA containing blocking buffer. […] Peptide-MHC monomers of the UV-exchange reaction were diluted 100 fold in blocking buffer. Samples were incubated for 1 h at 37° C., washed four times, incubated with 2 ug/ml HRP conjugated anti-β2m for 1h at 37° C., washed again and detected with TMB solution that is stopped with […]. Absorption was measured at 450 nm. Candidate peptides that show a high exchange yield (preferably higher than 50%, most preferred higher than 75%) are generally preferred for a generation and production of antibodies or fragments thereof, and/or T cell receptors or fragments thereof, as they show sufficient avidity to the MHC molecules and prevent dissociation of the MHC complexes.

| Substance | Peptide exchange (MHC class I binding score, peptide exchange yield) |
| --- | --- |
| 66 (FLDENIGGVAV; listed as Homo sapiens) [compound 66] | “+++” (≥50 = +++) |
| 67 (TLLAEALVTV; listed as Homo sapiens) [compound 67] | “+++” (≥50 = +++) |
| 68 (SLMELPRGLFL; listed as Homo sapiens) [compound 68] | “++++” (≥75% = ++++) |
| 69 (FQLDPSSGVLVTV; listed as Homo sapiens) [compound 69] | “+++” (≥50 = +++) |
| 70 (GLLDYPVGV; listed as Homo sapiens) [compound 70] | “+++” (≥50 = +++) |
| 71 (GILARIASV; listed as Homo sapiens) [compound 71] | “+++” (≥50 = +++) |
| 72 (SLLELDGINL; listed as Homo sapiens) [compound 72] | “+++” (≥50 = +++) |
| 73 (NIFDLQIYV; listed as Homo sapiens) [compound 73] | “+++” (≥50 = +++) |
| 74 (ALLDPEVLSIFV; listed as Homo sapiens) [compound 74] | “+++” (≥50 = +++) |
| 75 (GLLEVMVNL; listed as Homo sapiens) [compound 75] | “+++” (≥50 = +++) |
| 76 (ILIDSIYKV; listed as Homo sapiens) [compound 76] | “+++” (≥50 = +++) |
| 77 (ILVEADGAWVV; listed as Homo sapiens) [compound 77] | “++++” (≥75% = ++++) |
| 78 (SLFSSLEPQIQPV; listed as Homo sapiens) [compound 78] | “+++” (≥50 = +++) |
| 79 (SLFIGEKAVLL; listed as Homo sapiens) [compound 79] | “+++” (≥50 = +++) |
| 80 (FLYDNLVESL; listed as Homo sapiens) [compound 80] | “++” (≥20% = ++) |
| 81 (FLFSQLQYL; listed as Homo sapiens) [compound 81] | “++” (≥20% = ++) |
| 82 (FLSSVTYNL; listed as Homo sapiens) [compound 82] | “+++” (≥50 = +++) |
| 83 (ILAPTVMMI; listed as Homo sapiens) [compound 83] | “+++” (≥50 = +++) |
| 84 (VTFGEKLLGV; listed as Homo sapiens) [compound 84] | “++” (≥20% = ++) |
| 85 (KMSELRVTL; listed as Homo sapiens) [compound 85] | “+++” (≥50 = +++) |
| 86 (NLIGKIENV; listed as Homo sapiens) [compound 86] | “+++” (≥50 = +++) |

| Substance | Peptide exchange (MHC class I binding score, peptide exchange yield) |
| --- | --- |
| 87 (ALPEAPAPLLPHIT; listed as Homo sapiens) [compound 87] | “++” (≥20% = ++) |
| 88 (FLLVGDLMAV; listed as Homo sapiens) [compound 88] | “+++” (≥50 = +++) |
| 89 (YILPTETIYV; listed as Homo sapiens) [compound 89] | “++++” (≥75% = ++++) |
| 90 (TLLQIIETV; listed as Homo sapiens) [compound 90] | “+++” (≥50 = +++) |
| 91 (IMQDFPAEIFL; listed as Homo sapiens) [compound 91] | “++++” (≥75% = ++++) |
| 92 (YLIPFTGIVGL; listed as Homo sapiens) [compound 92] | “++” (≥20% = ++) |
| 93 (LLQAIKLYL; listed as Homo sapiens) [compound 93] | “++” (≥20% = ++) |
| 94 (YLIDIKTIAI; listed as Homo sapiens) [compound 94] | “++” (≥20% = ++) |
| 95 (SVIPQIQKV; listed as Homo sapiens) [compound 95] | “+++” (≥50 = +++) |
| 96 (YIFTDNPAAV; listed as Homo sapiens) [compound 96] | “+++” (≥50 = +++) |
| 97 (SLINGSFLV; listed as Homo sapiens) [compound 97] | “+++” (≥50 = +++) |
| 98 (LIIDQADIYL; listed as Homo sapiens) [compound 98] | “+++” (≥50 = +++) |
| 99 (ALVSKGLATV; listed as Homo sapiens) [compound 99] | “++” (≥20% = ++) |
| 100 (YLLSTNAQL; listed as Homo sapiens) [compound 100] | “++++” (≥75% = ++++) |
| 101 (ILVGGGALATV; listed as Homo sapiens) [compound 101] | “+++” (≥50 = +++) |
| 102 (YLFESEGLVL; listed as Homo sapiens) [compound 102] | “+++” (≥50 = +++) |
| 103 (TLAEEVVAL; listed as Homo sapiens) [compound 103] | “+++” (≥50 = +++) |
| 104 (STMEQNFLL; listed as Homo sapiens) [compound 104] | “++++” (≥75% = ++++) |
| 106 (LLYDAVHIVSV; listed as Homo sapiens) [compound 106] | “+++” (≥50 = +++) |
| 107 (FLQPVDDTQHL; listed as Homo sapiens) [compound 107] | “+++” (≥50 = +++) |
| 108 (ALFPGVALLLA; listed as Homo sapiens) [compound 108] | “++++” (≥75% = ++++) |

| Substance | Peptide exchange (MHC class I binding score, peptide exchange yield) |
| --- | --- |
| 109 (IILSILEQA; listed as Homo sapiens) [compound 109] | “++++” (≥75% = ++++) |
| 110 (FLSQVDFEL; listed as Homo sapiens) [compound 110] | “+++” (≥50 = +++) |
| 111 (YVWGFYPAEV; listed as Homo sapiens) [compound 111] | “+++” (≥50 = +++) |
| 113 (GLLPTPLFGV; listed as Homo sapiens) [compound 113] | “+++” (≥50 = +++) |
| 114 (SLVGEPILQNV; listed as Homo sapiens) [compound 114] | “++” (≥20% = ++) |
| 115 (AIAGAGILYGV; listed as Homo sapiens) [compound 115] | “++” (≥20% = ++) |
| 116 (YHIDEEVGF; listed as Homo sapiens) [compound 116] | “+” (≥10% = +) |
| 117 (ILPDGEDFLAV; listed as Homo sapiens) [compound 117] | “+++” (≥50 = +++) |
| 118 (KLIDNNINV; listed as Homo sapiens) [compound 118] | “+++” (≥50 = +++) |
| 119 (FLYIGDIVSL; listed as Homo sapiens) [compound 119] | “++++” (≥75% = ++++) |
| 120 (ALLGIPLTLV; listed as Homo sapiens) [compound 120] | “+++” (≥50 = +++) |
| 121 (GVVDPRAISVL; listed as Homo sapiens) [compound 121] | “++” (≥20% = ++) |
| 122 (FLLAEDDIYL; listed as Homo sapiens) [compound 122] | “+++” (≥50 = +++) |
| 123 (NLWDLTDASVV; listed as Homo sapiens) [compound 123] | “+++” (≥50 = +++) |
| 124 (ALYETELADA; listed as Homo sapiens) [compound 124] | “++” (≥20% = ++) |
| 125 (VQIHQVAQV; listed as Homo sapiens) [compound 125] | “+++” (≥50 = +++) |
| 126 (VLAYFLPEA; listed as Homo sapiens) [compound 126] | “++++” (≥75% = ++++) |
| 127 (KIGDEPPKV; listed as Homo sapiens) [compound 127] | “++” (≥20% = ++) |
| 128 (YLFDDPLSAV; listed as Homo sapiens) [compound 128] | “++” (≥20% = ++) |
| 129 (GLLDGGVDILL; listed as Homo sapiens) [compound 129] | “+++” (≥50 = +++) |
